B1: MBP-PHAX103–196 (wild type) [human] / Human nuclear cap-binding complex (CBC): CBP80ΔNLS with CBP20 [human] (parent)
chain 1: SQKPPVAGGKKINNIWGAVLQEQNQDAVATELGILGMEGTIDRSRQSETYNYLLAKKLRKESQEHTKDLDKELDEYMHGGKKMGSKEEENGQGH
chain 2: KTSDANETEDHLESLICKVGEKSACSLESNLEGLAGVLEADLPNYKSKILRLLCTVARLLPEKLTIYTTLVGLLNARNYNFGGEFVEAMIRQLKESLKANNYNEAVYLVRFLSDLVNCHVIAAPSMVAMFENFVSVTQEEDVPQVRRDWYVYAFLSSLPWVGKELYEKKDAEMDRIFANTESYLKRRQKTHVPMLQVWTADKPHPQEEYLDCLWAQIQKLKKDRWQERHILRPYLAFDSILCEALQHNLPPFTPPPHTEDSVYPMPRVIFRMFDYTDDPEGPVMPGSHSVERFVIEENLHCIIKSHWKERKTCAAQLVSYPGKNKIPLNYHIVEVIFAELFQLPAPPHIDVMYTTLLIELCKLQPGSLPQVLAQATEMLYMRLDTMNTTCVDRFINWFSHHLSNFQFRWSWEDWSDCLSQDPESPKPKFVREVLEKCMRLSYHQRILDIVPPTFSALCPANPTCIYKYGDESSNSLPGHSVALCLAVAFKSKATNDEIFSILKDVPNPNQDDDDDEGFSFNPLKIEVFVQTLLHLAAKSFSHSFSALAKFHEVFKTLAESDEGKLHVLRVMFEVWRNHPQMIAVLVDKMIRTQIVDCAAVANWIFSSELSRDFTRLFVWEILHSTIRKMNKHVLKIQKELEEAKEKLARQHKRRSDDDDRSSDRKDGVLEEQIERLQEKVESAQSEQKNLFLVIFQRFIMILTEHLVRCETDGTSVLTPWYKNCIERLQQIFLQHHQIIQQYMVTLENLLFTAELDPHILAVFQQFCALQA
chain 3: MSGGLLKALRSDSYVELSQYRDQHFRGDNEEQEKLLKKSCTLYVGNLSFYTTEEQIYELFSKSGDIKKIIMGLDKMKKTACGFCFVEYYSRADAENAMRYINGTRLDDRIIRTDWDAGFKEGRQYGRGRSGGQVRDEYRQDYDAGRGGYGKLAQNQ

Variants of: B1
Test: ITC
Settings: CBC pre-bound to the cap analog m7GpppG

Variant	Kd
chain 1 R45E Y50E Y52E	1.97 µM

Same assay, conditions: CBC pre-bound to the cap analog m7GpppG (row 'CBC-m7GpppG + PHAX103–196 (R147E, Y152E, Y154E)')

Variant	Kd
chain 1 R45E Y50E Y52E	1.97 µM

Source: article PMC12350170, “Structural basis for the synergistic assembly of the snRNA export complex” (Nature Structural & Molecular Biology, 2025)
